Assay results as given in the supplement of paper PMC7877785.
± gives the uncertainty stated by the source.

Experiment: self-splicing fitness, log relative to wild type (ln ratio); higher = more splicing; Tetrahymena group I intron in knt gene, E. coli kanamycin selection, DiMSum; sequences stand for … in CUCUCU…GGAGGGAAAAGUUAUCAGGCAUGCACCUGGUAGCUAGUCUUUAAACCAAUAGAUUGCAUCGGUUUAAAAGGCAAGACCGUCAAAUUGCGGGAAAGGGGUCAACAGCCGUUCAGUACCAAGUCUCAGGGGAAACUUUGAGAUGGCCUUGCAAAGGGUAUGGUAAUAAGCUGACGGACAUGGUCCUAACCACGCAGCCAAGUCCUAAGUCAACAGAUCUUCUGUUGAUAUGGAUGCAGUUCACAGACUAAAUGUCGGUCGGGGAAGAUGUAUUCUUCUCAUAAGAUAUAGUCGGACCUCUCCUUAAUGGGAGCUAGCGGAUGAAGUGAUGCAACACUGGAGCCGCUGGGAACUAAUUUGUAUGCGAAAGUAUAUUGAUUAGUUUUGGAGUACUCGUGGUCG
How it was run: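 The eight P1ex-region nucleotides of an intron in the knt kanamycin-resistance gene on pET-22b(+) were all randomised and the library put into E. coli BL21(DE3). Six replicate transformations were grown overnight at 37°C or 30°C on LB agar with or without 25 μg/mL kanamycin, together with 100 μg/mL carbenicillin, 50 μM IPTG and 0.2% rhamnose. Colonies were pooled and amplicon-sequenced on an Illumina HiSeq 2500. Fitness from DiMSum is the error-weighted combination of wild-type-normalised replicate fold changes, kanamycin over none.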

| Sequence | self-splicing fitness (ln) (30 °C) | self-splicing fitness (ln) (37 °C) |
| --- | --- | --- |
| CCACAGCAAUAUUACGCUCU | -4.07 ± 0.17 | -2.1 ± 0.16 |
| CCACAGCAAUAUUACGCUUG | -2.66 ± 0.075 | -1.96 ± 0.083 |
| CCACAGCAAUAUUACGGAUC | -4.54 ± 0.34 | -2.8 ± 0.27 |
| CCACAGCAAUAUUACGGCAA | -2.92 ± 0.29 | -2.74 ± 0.32 |
| CCACAGCAAUAUUACGGCAU | -3.72 ± 0.16 | -2.54 ± 0.18 |
| CCACAGCAAUAUUACGGCCC | -2.78 ± 0.29 | – |
| CCACAGCAAUAUUACGGCUG | -3.26 ± 0.15 | -2.48 ± 0.15 |
| CCACAGCAAUAUUACGGUCG | -0.147 ± 0.066 | 0.437 ± 0.086 |
| CCACAGCAAUAUUACGGUCU | -3.44 ± 0.11 | -1.87 ± 0.12 |
| CCACAGCAAUAUUACGUAAA | -3.84 ± 0.17 | -2.06 ± 0.18 |
| CCACAGCAAUAUUACGUAGA | -2.28 ± 0.085 | -1.5 ± 0.12 |
| CCACAGCAAUAUUACGUCAU | -3.67 ± 0.16 | -2.81 ± 0.16 |
| CCACAGCAAUAUUACGUGUU | -3.75 ± 0.1 | -3.15 ± 0.14 |
| CCAGAGCAAUAUUACGAACC | -2.33 ± 0.28 | -1.77 ± 0.38 |
| CCAGAGCAAUAUUACGAAGA | -3.48 ± 0.31 | -2.84 ± 0.43 |
| CCAGAGCAAUAUUACGAAUC | -3.76 ± 0.26 | -2.74 ± 0.27 |
| CCAGAGCAAUAUUACGACCU | -2.54 ± 0.23 | -3.29 ± 0.39 |
| CCAGAGCAAUAUUACGCAAU | -2.14 ± 0.2 | -2.05 ± 0.31 |
| CCAGAGCAAUAUUACGCCAA | – | -3.04 ± 0.47 |
| CCAGAGCAAUAUUACGCCAG | -3.07 ± 0.25 | – |
| CCAGAGCAAUAUUACGCCUC | -3.12 ± 0.31 | 0.134 ± 0.26 |
| CCAGAGCAAUAUUACGGGAA | – | 0.0973 ± 0.28 |

| Sequence | self-splicing fitness (ln) (30 °C) | self-splicing fitness (ln) (37 °C) |
| --- | --- | --- |
| CCAGAGCAAUAUUACGGGCC | -2.83 ± 0.22 | -2.55 ± 0.26 |
| CCAGAGCAAUAUUACGGGUA | -2.35 ± 0.29 | -2.3 ± 0.3 |
| CCAGAGCAAUAUUACGGUGC | -2.81 ± 0.14 | -2.28 ± 0.23 |
| CCAGAGCAAUAUUACGUAAA | -2.75 ± 0.2 | -1.29 ± 0.3 |
| CCAGAGCAAUAUUACGUAAG | -1.59 ± 0.097 | -0.37 ± 0.12 |
| CCAGAGCAAUAUUACGUAUG | -2.22 ± 0.11 | -1.77 ± 0.12 |
| CCAGAGCAAUAUUACGUCGC | -3.95 ± 0.32 | -2.49 ± 0.29 |
| CCAGAGCAAUAUUACGUCUG | -3.53 ± 0.2 | -1.63 ± 0.14 |
| CCAGAGCAAUAUUACGUUGA | -2.69 ± 0.22 | -3.35 ± 0.24 |
| CCAUAGCAAUAUUACGAGAU | -3.81 ± 0.35 | -2.12 ± 0.21 |
| CCAUAGCAAUAUUACGAUAA | – | -3.15 ± 0.4 |
| CCAUAGCAAUAUUACGAUCU | -3.15 ± 0.34 | -2.96 ± 0.44 |
| CCAUAGCAAUAUUACGAUGC | -3.11 ± 0.17 | -1.88 ± 0.17 |
| CCAUAGCAAUAUUACGAUUA | -3.12 ± 0.32 | -2.54 ± 0.28 |
| CCAUAGCAAUAUUACGCACU | -3.41 ± 0.4 | -3.05 ± 0.34 |
| CCAUAGCAAUAUUACGCAUG | -3.37 ± 0.19 | -0.732 ± 0.13 |
| CCAUAGCAAUAUUACGCAUU | -3.65 ± 0.26 | -2.84 ± 0.36 |
| CCAUAGCAAUAUUACGCUUU | -4.72 ± 0.28 | -3.1 ± 0.2 |
| CCAUAGCAAUAUUACGGGAC | – | -2.82 ± 0.28 |
| CCAUAGCAAUAUUACGUAAC | – | -2.7 ± 0.29 |
| CCAUAGCAAUAUUACGUACC | -3.95 ± 0.47 | -2.21 ± 0.36 |
| CCAUAGCAAUAUUACGUAUG | -3.88 ± 0.15 | -2.19 ± 0.13 |
